Publication PMC10923064

Tests used:
[1] = biological target: T1, human RPA (RPA70/RPA32/RPA14) (human, UniProt P27694;P15927;P35244 1-616;1-270;1-121); test: fluorescence anisotropy
[2] = biological target: T1, human RPA (RPA70/RPA32/RPA14); test: stopped-flow Trp fluorescence

T1 sequence (P27694 whole entry, chain 1 of 3): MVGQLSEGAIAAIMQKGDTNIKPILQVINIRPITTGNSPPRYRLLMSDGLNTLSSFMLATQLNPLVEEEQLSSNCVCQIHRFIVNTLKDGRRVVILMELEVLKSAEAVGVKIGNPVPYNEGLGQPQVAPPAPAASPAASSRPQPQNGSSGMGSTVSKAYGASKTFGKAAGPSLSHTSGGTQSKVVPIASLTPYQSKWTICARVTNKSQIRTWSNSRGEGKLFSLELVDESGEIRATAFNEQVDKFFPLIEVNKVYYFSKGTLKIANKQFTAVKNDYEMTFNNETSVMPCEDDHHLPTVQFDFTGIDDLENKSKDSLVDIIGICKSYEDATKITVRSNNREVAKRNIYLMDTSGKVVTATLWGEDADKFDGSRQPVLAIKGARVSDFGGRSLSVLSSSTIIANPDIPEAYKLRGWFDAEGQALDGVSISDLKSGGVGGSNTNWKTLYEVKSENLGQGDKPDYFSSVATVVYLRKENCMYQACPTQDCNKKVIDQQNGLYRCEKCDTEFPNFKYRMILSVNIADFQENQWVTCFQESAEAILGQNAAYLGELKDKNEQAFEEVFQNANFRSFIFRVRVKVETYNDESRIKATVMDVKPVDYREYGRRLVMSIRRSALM
T1 sequence (P15927 whole entry, chain 2 of 3): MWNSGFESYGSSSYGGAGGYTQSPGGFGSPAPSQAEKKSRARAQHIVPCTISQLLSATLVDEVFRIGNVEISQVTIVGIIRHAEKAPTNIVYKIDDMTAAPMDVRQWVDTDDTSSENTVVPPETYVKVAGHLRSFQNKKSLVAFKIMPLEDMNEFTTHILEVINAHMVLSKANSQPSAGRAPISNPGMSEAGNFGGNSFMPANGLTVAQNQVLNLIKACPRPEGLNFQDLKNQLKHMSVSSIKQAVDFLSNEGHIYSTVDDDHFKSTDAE
T1 sequence (P35244 whole entry, chain 3 of 3): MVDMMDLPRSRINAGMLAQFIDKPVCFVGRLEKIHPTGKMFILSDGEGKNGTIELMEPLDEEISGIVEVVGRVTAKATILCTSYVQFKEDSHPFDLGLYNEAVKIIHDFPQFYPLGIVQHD

Binder	binding result [1]	binding result [2]
TTTTTTTTTTTTTTTTTTTTTTTTTTTTTTTTTTT (ssDNA) [5'-FAM-(dT)35]	binds	–
TTTTTTTTTTTTTTTTTTTTTTTTTTTTTTTTTTT (ssDNA) [(dT)35]	–	binds
